The text below walks through data of the DeepSol protein solubility set.

A short description of this data set: soluble on expression in E. coli; label from the status in PepcDB or PDB records.
In the case of “MGSDKIHHHHHHQPAAGISDDMVKIGMLLDMSGLYADVTGRGSATAAQMAIDDFGGKVLGKKIELVVVDHQNKADIAANKAREWFDTGHVDAILDVAASAPALAVLDVAKQKNHIVVFSGPGSERITNDLCTPVSVHYAYDTYALANTTARAMVQRGGKTWFFLTADYAFGHTLQDSATAVINEAGGKVLGAARHPIGASDFASYLLQAQASKAQVVGLANAGGDTVNAIKAASEFGLTRNGAQRMAGLLLYINDIHAIGLKTASGLVLTEAFYWDMNDATRAWSRRYFEKVKKMPNMSQAGAYSSVMHYLKAVQAAGTDETAAVMKKMKSMPINDFFAKNGRIREDGRMIHDMYLFEVKSPAESKYPWDYYKVLATVPGDQAFMPASKSQCPLLKR”, the “soluble on expression in E. coli” value was “not soluble”. For “RSLQLDKLVNEMTQHYENSVPEDLTVHVGDIVAAPLPTNGSWYRARVLGTLENGNLDLYFVDFGDNGDCPLKDLRALRSDFLSLPFQAIECSLARIA”, the “soluble on expression in E. coli” value is listed as “soluble”.

Take “MLTIGLYNTYDTKKLHEAHIRAIARAAPVAYAYEFHLALIGFPFDSDDPKEVAERVASTTTIGEGGKYLLELAKSNKFHLLDFPKRGFPPQFGEVIATTSKPSKEKVIGSREVAEMALRGKSLMLIIGLGRHGLPKEVFEISKYHLDITDGREISLETCTAIGIIPARIKTLMEALKWK”: the “soluble on expression in E. coli” value is “not soluble”. On to “AVVSTDEYVTRTNIYYHAGSSRLLAVGHPYYAIKKQDSNKIAVPKVSGLQYRVFRVKLPDPNKFGFPDTSFYDPASQRLVWACTGVEVGRGQPLGVGISGHPLLNKLDDTENSNKYVGNSGTDNRECISMDYKQTQLCLIGCRPPIGEHWGKGTPSNANQVKAGECPPLELLNTVLQDGDMVDTGFGAMDFTTLQANKSDVPLDICSSICKYPDYLKMVSEPYGDMLFFYLRREQMFVRHLFNRAGTVGETVPADLYIKGTTGTLPSTSYFPTPSGSMVTSDAQIFNKPYWLQRAQGHNNGICWSNQLFVTVVDTTRSTNMSVCSAVSSSDSTYKNDNFKEYLRHGEEYDLQFIFQLCKITLTADVMTYIHSMNPSILEDWNGGSGGDPLKNYTFWEVDLKEKFSADLDQFPLGRKFLLQAGL”, for which the “soluble on expression in E. coli” value is listed as “soluble”.

For the sequence “MSLTKPFDVTLTREIIKIESVYAKMIENENILYLRVTNFDKNVVDVASKELKKYPNVKGVILDLRNNPGGLLNQAIGLVNLFVDKGVIVSQKGRIASENQEYKADPKNKISNASLVVLVNGGSASASEIVSGALQDLKRGVIVGENTFGKGSVQQIIPINKTEALRLTIARYYLPSGRTIQAVGVKPDIEVFPGKVNTQEDGFSIKESDLKQHLESELEKIDKNKKEDKQENKDNKNLISQKQINDDAQLKSAIDTIKILNIKQGEGHHHHHH”, the “soluble on expression in E. coli” value was “soluble”.

For the sequence “MDVGKLESFIVEKMAERKVPGISISIIKDGDVVYAKGFGYRNVEARLPSTPETIYGIGSITKSFTALAIMKLVEEGGLSLDDPVEKFVNIKLRPFGEPVTVHHLLTHSSGIPSLGYAEAFIDGMVGGDNWLPVSTPEETIAFARDMEKWAVAKPGERFFYLNTGYVLLGKIIEKVSGVSYEEYIKKKILEPLGMNRSYFFKEEVEKDKDVAMGYILDKEGRLVPQPFPYGITADGGLLSSVLDLAKYLKMYIERDESIVSKEYIEKMETSYIKVPWEIFGGEGYGYGLIIYPNFLGEKLVGHSGSVGMYTGYIGYIPEKKIGVAVLENSSGYPPSYIAMYALALLLGKNPEKELPFIYRERILKKVEGRYMGYKGTIKFEVKVDGDVVYLRALGRAFTYTIPLFPEVLEEDFIKCYTLSNGRKMYAEFYIKDNKVDLIFERYRLIKS”, the “soluble on expression in E. coli” value was “soluble”.

For the sequence “MDAAVIVPAYNEAESLARCLAPFESQPVELVVVVGGDDGTEQVARDTPFVDTVVRCDEGGAGIARNRGAAAATAPILLFTDADTVVPEDWVRLHLRHYADDEVIGVGGPARPLEDSLKHRVLFKLLSDYWYRVSWPLGFVQQPGFNCSFRADAFKAAGGFNEDIPFMEDTELSLRMKDYGRIVYDADSCVATSARREADEGYVSLFAKYVRGYANHYILRREFDADYFLEHHHHHH”, the “soluble on expression in E. coli” value is listed as “not soluble”. On to “MRKDVKIYLNHILESIELIEEYTKDKTEDDFFTSKFLQDAVIRRIEIIGEAIKNLPMEFREKYNHIPWKEFAEMRDILIRKYFGVDLGLTWEVVKKDIPKLKEEILKIMEELDKNKNNKYNVFAYGELMKKERLLELINRVPKMIEGRVYGYEKFFDETIGYYGARKKEGSYIDGIILLDITDKELGIFDDYEDLDVYYIREKTTAVSEDGRKYDVYIYLRK”, for which the “soluble on expression in E. coli” value is recorded as “soluble”. As to “MPLSPLDIHNKEFTRGFRGYDEDEVNDFLDQIIKDYEQVIKEKKRIEDTLNNSEERLGHFTNIEETLNKSLIVAQTAAEEVKASAEKEAKLIIREAEKNADRILSDSLSKARKIAIEIEDLKRQSKVFRERLRMLVEAQMDLIKSEDWQQMMAYDVDATELASIKEVESAESEER”, the “soluble on expression in E. coli” value is “not soluble”.

Regarding “MGSDKIHHHHHHMWFSLTYAIIMHSLTTTRKMLQRLDVYLTSFEWGNFSKSKLSILQAFLKIATKDGYDAVSMRSLAKAVDLKPPTMYSHFPAGKDQIVSSAFRWHYYSFAMAVKEGLSQSETLEEYWSALIRVHIIQQIKHPENDLFDMLMATDRLGSILPTDLRSEMIEWLSFCDFMYESIATDLGIDDAKQKSKIIRVTLDGANSWWKWDDSQENLEECIRYAERIAAGILKI”, the “soluble on expression in E. coli” value is reported as “not soluble”. “MSLSEAGHKFLAKLGKKRLRPGGKRATDWLIAEGGFSKEKRILEVACNRGTTAIELAQRFGCKITAVDMDAQALEVAKKSAGTAGVAHLISFERANAMKLPYQDASFDIVINEAMLTMQADQAKKKCVMEYLRVLKPGGLLLTHDVLLKEAKESIRQELSQAIHVNVGPLTQDGWEQVMIESGYCDVKALTGEMTLMKLSGMIYDEGLLGTLKICVNACKKENRKQFLTMYKMFAKNKQKLGFIAMASYKSSKREGHHHHHH”: the “soluble on expression in E. coli” value is on record as “not soluble”. Under “MDAKQRIARRVAQELRDGDIVNLGIGLPTMVANYLPEGIHITLQSENGFLGLGPVTTAHPDLVNAGGQPCGVLPGAAMFDSAMSFALIRGGHIDACVLGGLQVDEEANLANWVVPGKMVPGMGGAMDLVTGSRKVIIAMEHCAKDGSAKILRRCTMPLTAQHAVHMLVTELAVFRFIDGKMWLTEIADGCDLATVRAKTEARFEVAADLNTQRGDL” stands “soluble”; under “MGSDKIHHHHHHMGMDFKVPDYMQELALASGQGLDQLSAVLARILDHPVLISSSAYKLFSSSSHYDFESFHIYSNQPRTGSDALFTCHILTDTMQSLALGRVVAPFGRTLGYIFMLTDDDSPDPTHFKPLLDYAASLCAVHLQNRLELKQEQSKFKNAFLYDLIYGNLKRNDEIIATGELWGWNFRRPHTIMVFLLPEPDFYTTEWHLMDVLSRIVEQNFIEIYYKNPAVILRQNELILFVPMQTDKPAVQTEELLVFADKILSQVQNTELKGLAACGVGQAYSEATVLFRSYQEAKVALEMGKLLGIPIPFFRDLGLERILYKHDLQDLKEYYLHVLGELHKQDDQDSSLVTILESFAENQFDVGKTAKALFMHPNTLRYRLNKIENILGKPLTDNHARLDIMAAFKIKRLHTIETLLA”, “not soluble”. Consider “MITTPNISLTPTVAPPVDFPIIGNCDFQAQLWHLMSLHLQMQKSSAASTSSSSSSSTSSENLKKSPSSVQNTSVFSIDNILNSQKVPKLELENDEDVSSSPSPTCSTTGYTLDSLQNLDRRSLNKKGPSSHNRCVCDKCGKSYATTSNLSRHKQTHRALDSPHAKQCPHCDRVYVSMPALSMHILTHNASHECNVCGKRFSRLWLLQGHLRSHTGLRPFSCAHCGKSFADRSNLRAHMLTHTGDKRFECDKCGRRFALRAYLNRHLETCK”, for which the “soluble on expression in E. coli” value is recorded as “not soluble”. As for “MGSDKIHHHHHHMSFLIGPFLKSFIDNVIKDTVIPVKGSVVYCGLFGYAEHSGIYIGDNKIVHLDGSGIIEVVSPQQFIERLSGLNPAMSIYVSCNGSSATGTNTIAKRAKKMVGKSRKYHVILDNCHQFTSGCITGNFDNADNFLWMLKSTAGNKLSTNKWRVWERKYSS”, the “soluble on expression in E. coli” value was “not soluble”.

For “MKTVRCSILGFGAIGQGVAEVLLMKKEYLESIGLEIIVVAVVDSRGATINPEGVDLADCLARKRTTGTVAIEKITGVEVIKSIDHDLVIETTPTNIVTGGAGLQNMFAAFEIGKDVITSNKGPLTLKYRELMEAAKVAGSSFRFEATVGGSMPIINLANEVLAGNRLKSIKGILNGTCNYILTRMLEERASYKDILAESMELGIAETDPTYDVDGIDTACKLVILANAIFGLNATYKDVEVTGITKITPEALEMAYERGHVIKLIGEVSRERIHVAPRLVPINHPLDVRGTLNVASIDTELAGEITVTGKGAGPVETASAILSDLIAIYGNQLEHHHHHH”, the “soluble on expression in E. coli” value was “soluble”. Under “MGHHHHHHSHAESHLQSSLITASQFFEIWLHFDADGSGYLEGKELQNLIQELQQARKKAGLELSPEMKTFVDQYGQRDDGKIGIVELAHVLPTEENFLLLFRCQQLKSCEEFMKTWRKYDTDHSGFIETEELKNFLKDLLEKANKTVDDTKLAEYTDLMLKLFDSNNDGKLELTEMARLLPVQENFLLKFQGIKMCGKEFNKAFELYDQDGNGYIDENELDALLKDLCEKNKQDLDINNITTYKKNIMALSDGGKLYRTDLALILCAGDN” stands “soluble”; under “MSLNELPEFEDYVVLTQQQNQNYKIVQQFNNFDKAILLGTSTFFEGFDFQANGIKCVMIAKLPFMNKHNAKYWLMDSEFTSTFKEYVLPDAVTRFRQGLGRLIRNENDRGIIVSFDDRLINSNYKNFFEQTLENYRQKKGDIQQFGKLLRQIQKEGHHHHHH”, “not soluble”. As for “MNQNKSNVPVSVAEEPDELSYYRLTLLSFLRESHPDLADDESFVATRSEQAAEAFSAAVRSGLTYDDAAQQANALLFQGLHFSPLDTLVTVLWNEFAAEVPEGSARSVALQLLPECRKVFAGYTLSDDFMFSPEFGQLYDELTGTVVIWLEENGL”, the “soluble on expression in E. coli” value is “not soluble”. With “MGSDKIHHHHHHMIEIIPAIDIIDGKCVRLSQGDYDSKKVYNENPVEVAKEFEANGVRRLHVVDLDGAASHHVVNHRVLEQIATRTSLIVDFGGGVKSDEDLKIAFESGAQMVTGGSVAVKDPELFCHWLEVYGSEKIILGADVKEHKIAVNGWKDESACELFPFLEDYINKGIQKVICTDISCDGMLKGPSIDLYKEMLEKFPNLYLMASGGVSNVDDIIALNEAGVPGVIFGKALYEGHITLKDLRIFL”, the “soluble on expression in E. coli” value is recorded as “not soluble”. As to “MSLSIAISNAIIVTQNDNRDVYRGNVKIDGNKIQYVGKDEVDGDILIDGTNKVLMPGLINTHAHVGMSASKGLFDDVDLDSFLKKTFEYDSDRTSTGIFNSAKLGMYEMIGNGITAFVDLYYSEDIIAKAAEEIGIRAFLSWVTLDKELTTQIGDPVENAENFIRNHVGNKYVVPSVGVQGIYVANDDTFRRAMDLAEKYGTILHMHLSETRKEVYDAVKKLGERPIEHLHNIGILNKRVLAAHCVWATYHEVRLLSKDGVNVSWNSISNFKLGTGGIPPIPEMMRENVNVTIGTDSNGSNNSLDMFQAMKFSAISVKNYRWDASLMKAQEILDMATRNAARALQLNAGSIEVGKLADVVLLDATIPSMIPTNEANAVSNIVYSSSPQNVDTVIIDGEIKKINGKILGFHSNKFTNSEFKEGHHHHHH”, the “soluble on expression in E. coli” value is reported as “not soluble”.

Take “MSLTVIITGASSGIGAGLAKSFAADGHLVIACGRDASRLAALQQLSPNISVRLFDMTDRDACRQALTGCFADLIILCAGTCEYLDHGQVDAALVERVMATNFLGPVNCLAALQTQLEAGDRVVLVSSMAHWLPFPRAEAYGASKAALTWFANSLRLDWEPKGVAVTVVSPGFVDTPLTRKNDFAMPGRVSVDRAVAAIRHGLAKGKNHIAFPTGFSLALRLLASLPSGIQRLLLRRMVRSEGHHHHHH”: the “soluble on expression in E. coli” value is on record as “soluble”.
